Laboratory results published in the Human Domainome abundance scans (Beltran et al. 2025).

B1: E3 ubiquitin-protein ligase TRIM36, residues 208 to 252; numbered along this chain, Q9NQ86 (parent)
chain: KILMCPEHETERINMYCELCRRPVCHLCKLGGNHANHRVTTMSSA

Variants of: B1
Test: abundance fitness (aPCA) (normalised: wild type 0, dead -1); higher = more abundant; growth selection in yeast, the domain comes from the species named
Conditions: Homo sapiens

Abundance fitness, by site and new letter:
P6: H -0.108, F -0.234, Q -0.042, M -0.224, W -0.378, I -0.219, R -0.145, K 0.023
N36: D -0.005, V -0.202, F -0.017, A 0.029
R21: A 0.002, D 0.067, V 0.01, N -0.121, Y 0.027, W -0.416, C -0.083
T10: K 0.041, N -0.282, W -0.273, Y -0.171, A -0.12, F -0.337, C -0.06, E -0.049, L -0.142, P -0.015
S44: C -0.208, H -0.119, W -0.274, P 0.034, F -0.263, N -0.038, Q -0.038, I -0.246, E 0.086
E11: M -0.322, Y 0.082, W -0.52, L -0.196, Q -0.079
E9: M -0.099, L -0.04, K 0.079, C -0.074, S 0.07, N -0.052, Q -0.062, I -0.042
V39: R -0.064, L -0.007, A 0.079, P -0.005, S 0.008, G 0.079, N 0.057, C -0.079, Y -0.184, D 0.079, T 0.054, Q 0.008, H -0.023, F -0.103
H8: A -0.951, R -0.841, C -0.611, Y -0.983, K -0.638, Q -0.716
L30: K 0.101, N 0.042, P 0.005, W -0.203, E 0.09, F -0.206, S 0.075
P23: R -0.148, K -0.146, E 0.037, A -0.064, H -0.113, M -0.189, G 0.006, Y -0.069
M4: S -0.203, V -0.077, I -0.063, Y 0.031, T -0.072, L -0.187, E -0.173, H -0.133
E18: N -0.151, M -0.178, W -0.236, C -0.209, R -0.385, L -0.196, H -0.343, T -0.147
C5: D -0.536, K -0.688, E -0.655, L -0.929, G -0.744, R -0.976, P -1.06, T -0.703, S -0.765
M15: C 0.12, E -0.024, Q -0.285
R22: A 0.01, V -0.01, P -0.344, F -0.113, I -0.227, Y -0.265, C -0.118, K 0.068, E 0.034, G -0.116
I2: R -0.243, G -0.115, D 0.012, A -0.165, C -0.345, T -0.097, N 0.011, P -0.386
K1: A -0.25, R -0.28, G -0.273, M -0.277, L -0.388, H -0.283, F -0.167
A45: R -0.112, K -0.265, L -0.156, S -0.074, C -0.482, P 0.015, N -0.549, G 0.023, M -0.232
H34: G -0.288, Y -0.562, E -0.272, M -0.431, F -0.614, N -0.46, K -0.485, I -0.738, A -0.334, C 0.033, S -0.318
L3: F -0.04, E 0.163, V -0.037, P -0.128, H -0.131, S -0.007, D 0.07, R -0.114
T40: S -0.025, R -0.089, H -0.146, L -0.243, P 0.003, F -0.317, W -0.287, K -0.112, M -0.318, Q -0.014
I13: A -0.015, M 0.049
E7: G -0.292, T -0.042, L -0.127, K -0.085, C -0.209, R -0.104
R12: S -0.38, E -0.016, D -0.539, W -0.269
M42: S 0.06, F -0.034, A 0.12, I -0.282
N14: G -0.152, D -0.13, M 0.073, L 0.036, E 0.048, C 0.106
C17: F -1.21, H -0.656, W -1.16, V -0.813, T -0.796, Y -0.862
C25: V -0.854, T -0.612, D -0.553, H -0.603, Y -0.805, E -0.48, N -0.5
G31: T 0, C -0.094, Q -0.019, I -0.203
A35: V -0.011, P -0.182, D 0.085, T -0.068, I 0.255, N -0.339, K -0.078
R38: V 0.036, C 0.017, F -0.121, I -0.11, Q 0.024, T 0.075, P -0.011
V24: E -0.293, Q -0.431, A -0.153, C -0.107
H26: G 0.049, V -0.016, L -0.161, K -0.384, P 0.021, D 0.04, W -0.324, N -0.215, Q 0.045, S 0.004
C20: K -0.547, P -0.819, V -0.789, L -0.591
K29: P -0.043, L 0.039, E 0.048, D 0.126, F 0.001, T -0.009, A 0.012, C -0.07, I -0.13, H -0.066
Y16: S -0.135, T 0.284, R -0.069, H 0.082, M 0.11, Q -0.306, F -0.046, P -0.111, D -0.105, L -0.053, W -0.04
C28: Q -0.399, L -0.826, I -0.613, Y -0.904, H -0.763, E -0.275, D 0.302, A -0.672
G32: F -0.243, K -0.129, I -0.276, L -0.144, R -0.138, S -0.045, E 0.089
N33: S 0.036, Y -0.153, D 0.007, L -0.028, H -0.046, W -0.178, P 0.092, A 0.071
T41: R -0.093, H -0.526, M -0.142, D -0.026, E 0.071, I -0.158, K 0.007, Q -0.11
L19: Q 0.004, G 0.068, E 0.117, D 0.021, H 0.004, N 0.169, M 0.004
S43: F -0.415, Q 0.027, W -0.352, C -0.129, I -0.272, Y -0.439, H -0.067, G -0.022, L -0.181, T -0.093, E 0.083, A 0.001
H37: D -0.217, C -0.007, R -0.242, T -0.208, S -0.198, A -0.027, Y -0.36
L27: P -0.355, M -0.092, E -0.058, Q 0.019, W -0.223, R 0.015, T 0.095, D -0.202
